T1: human IL-23 (human, UniProt P29460 23-328; Q9NPF7 20-189)
T1 construct: Secreted from Sf9 cells for the crystal structure; One molecule is used for all three; also called Interleukin-23
T1 sequence (looked up) 1: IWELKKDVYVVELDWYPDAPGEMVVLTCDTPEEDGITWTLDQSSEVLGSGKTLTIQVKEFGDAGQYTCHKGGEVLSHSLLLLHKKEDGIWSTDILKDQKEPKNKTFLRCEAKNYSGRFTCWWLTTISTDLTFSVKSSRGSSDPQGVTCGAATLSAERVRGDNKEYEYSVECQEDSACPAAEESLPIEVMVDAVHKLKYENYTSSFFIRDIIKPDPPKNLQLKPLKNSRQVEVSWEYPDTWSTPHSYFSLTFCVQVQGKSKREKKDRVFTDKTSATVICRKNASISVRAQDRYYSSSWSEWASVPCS
T1 sequence (looked up) 2: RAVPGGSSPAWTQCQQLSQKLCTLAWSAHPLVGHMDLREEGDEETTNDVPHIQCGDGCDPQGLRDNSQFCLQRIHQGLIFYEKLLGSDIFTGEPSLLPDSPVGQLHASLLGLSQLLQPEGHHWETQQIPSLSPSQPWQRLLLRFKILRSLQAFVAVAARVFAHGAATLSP


Columns and labels:
[1] = biological target: T1, human IL-23; experiment: competition ELISA: Adnectin + 1 nM IL-23 on coated IL-23R-Fc
[2] = biological target: T1, human IL-23; experiment: SPR (Biacore T100), immobilized human IL-23, single cycle kinetics
[3] = biological target: T1, human IL-23; experiment: ratio of competition ELISA IC50, parent/mutant

| Binder | IC50 [1] [nM] | Kd [2] [nM] | Activity (parent/mutant) [3] [ratio] |
| --- | --- | --- | --- |
| Adnectin 2 (designed binder, also called anti-IL-23 Adnectin; ATI-000929) MGVSDVPRDLEVVAATPTSLLISWEHDYPYRRYYRITYGETGGNSPVQEFTVPKDVDTATISGLKPGVDYTITVYAVTSSYKYDMQYSPISINYRTEIDKPSQHHHHHH | 1 | 2 | 1 |
| Adnectin 2 Y73→N (designed binder) MGVSDVPRDLEVVAATPTSLLISWEHDYPYRRYYRITYGETGGNSPVQEFTVPKDVDTATISGLKPGVDYTITVNAVTSSYKYDMQYSPISINYRTEIDKPSQHHHHHH | 1.2 | – | 0.8 |
| Adnectin 2 Y28→A (designed binder) MGVSDVPRDLEVVAATPTSLLISWEHDYPARRYYRITYGETGGNSPVQEFTVPKDVDTATISGLKPGVDYTITVYAVTSSYKYDMQYSPISINYRTEIDKPSQHHHHHH | 13 | – | 0.08 |
| Adnectin 2 T35→N (designed binder) MGVSDVPRDLEVVAATPTSLLISWEHDYPYRRYYRINYGETGGNSPVQEFTVPKDVDTATISGLKPGVDYTITVYAVTSSYKYDMQYSPISINYRTEIDKPSQHHHHHH | 1.7 | – | 0.6 |
| Adnectin 2 T35→Q (designed binder) MGVSDVPRDLEVVAATPTSLLISWEHDYPYRRYYRIQYGETGGNSPVQEFTVPKDVDTATISGLKPGVDYTITVYAVTSSYKYDMQYSPISINYRTEIDKPSQHHHHHH | 1 | – | 1 |
| Adnectin 2 V45→Q (designed binder) MGVSDVPRDLEVVAATPTSLLISWEHDYPYRRYYRITYGETGGNSPQQEFTVPKDVDTATISGLKPGVDYTITVYAVTSSYKYDMQYSPISINYRTEIDKPSQHHHHHH | 0.34 | – | 2.9 |
| Adnectin 2 Y73→Q (designed binder) MGVSDVPRDLEVVAATPTSLLISWEHDYPYRRYYRITYGETGGNSPVQEFTVPKDVDTATISGLKPGVDYTITVQAVTSSYKYDMQYSPISINYRTEIDKPSQHHHHHH | 0.26 | – | 3.8 |
| Adnectin 2 Y73→R (designed binder) MGVSDVPRDLEVVAATPTSLLISWEHDYPYRRYYRITYGETGGNSPVQEFTVPKDVDTATISGLKPGVDYTITVRAVTSSYKYDMQYSPISINYRTEIDKPSQHHHHHH | 1.2 | – | 0.8 |
| Adnectin 2 V75→K (designed binder) MGVSDVPRDLEVVAATPTSLLISWEHDYPYRRYYRITYGETGGNSPVQEFTVPKDVDTATISGLKPGVDYTITVYAKTSSYKYDMQYSPISINYRTEIDKPSQHHHHHH | 5.7 | – | 0.2 |
| Adnectin 2 V75→Y (designed binder) MGVSDVPRDLEVVAATPTSLLISWEHDYPYRRYYRITYGETGGNSPVQEFTVPKDVDTATISGLKPGVDYTITVYAYTSSYKYDMQYSPISINYRTEIDKPSQHHHHHH | 2.2 | – | 0.4 |
| Adnectin 2 V45→N (designed binder) MGVSDVPRDLEVVAATPTSLLISWEHDYPYRRYYRITYGETGGNSPNQEFTVPKDVDTATISGLKPGVDYTITVYAVTSSYKYDMQYSPISINYRTEIDKPSQHHHHHH | 0.54 | – | 1.8 |
| Adnectin 2 T35→E (designed binder) MGVSDVPRDLEVVAATPTSLLISWEHDYPYRRYYRIEYGETGGNSPVQEFTVPKDVDTATISGLKPGVDYTITVYAVTSSYKYDMQYSPISINYRTEIDKPSQHHHHHH | 0.6 | – | 1.7 |
| Adnectin 2 V45→E (designed binder) MGVSDVPRDLEVVAATPTSLLISWEHDYPYRRYYRITYGETGGNSPEQEFTVPKDVDTATISGLKPGVDYTITVYAVTSSYKYDMQYSPISINYRTEIDKPSQHHHHHH | 0.51 | – | 1.9 |
| Adnectin 2 Y81→A (designed binder) MGVSDVPRDLEVVAATPTSLLISWEHDYPYRRYYRITYGETGGNSPVQEFTVPKDVDTATISGLKPGVDYTITVYAVTSSYKADMQYSPISINYRTEIDKPSQHHHHHH | 35 | – | 0.03 |
| Adnectin 2 T35→D (designed binder) MGVSDVPRDLEVVAATPTSLLISWEHDYPYRRYYRIDYGETGGNSPVQEFTVPKDVDTATISGLKPGVDYTITVYAVTSSYKYDMQYSPISINYRTEIDKPSQHHHHHH | 49 | – | 0.02 |
| Adnectin 2 V45→D (designed binder) MGVSDVPRDLEVVAATPTSLLISWEHDYPYRRYYRITYGETGGNSPDQEFTVPKDVDTATISGLKPGVDYTITVYAVTSSYKYDMQYSPISINYRTEIDKPSQHHHHHH | 0.83 | – | 1.2 |
| Adnectin 2 P87→A (designed binder) MGVSDVPRDLEVVAATPTSLLISWEHDYPYRRYYRITYGETGGNSPVQEFTVPKDVDTATISGLKPGVDYTITVYAVTSSYKYDMQYSAISINYRTEIDKPSQHHHHHH | 8.3 | – | 0.1 |
| Adnectin 2 Y73→A (designed binder) MGVSDVPRDLEVVAATPTSLLISWEHDYPYRRYYRITYGETGGNSPVQEFTVPKDVDTATISGLKPGVDYTITVAAVTSSYKYDMQYSPISINYRTEIDKPSQHHHHHH | 0.65 | – | 1.5 |
| Adnectin 2 V75→Q (designed binder) MGVSDVPRDLEVVAATPTSLLISWEHDYPYRRYYRITYGETGGNSPVQEFTVPKDVDTATISGLKPGVDYTITVYAQTSSYKYDMQYSPISINYRTEIDKPSQHHHHHH | 2.3 | – | 0.4 |

From patent publication US20210070840A1 (Bristol-Myers Squibb, published 2021)
